# Target: Human ACE2-hIgG1Fc (human) (UniProt Q9BYF1)
# Experiment: SPR
# Sequence of Human ACE2-hIgG1Fc (human) (Q9BYF1 18-740): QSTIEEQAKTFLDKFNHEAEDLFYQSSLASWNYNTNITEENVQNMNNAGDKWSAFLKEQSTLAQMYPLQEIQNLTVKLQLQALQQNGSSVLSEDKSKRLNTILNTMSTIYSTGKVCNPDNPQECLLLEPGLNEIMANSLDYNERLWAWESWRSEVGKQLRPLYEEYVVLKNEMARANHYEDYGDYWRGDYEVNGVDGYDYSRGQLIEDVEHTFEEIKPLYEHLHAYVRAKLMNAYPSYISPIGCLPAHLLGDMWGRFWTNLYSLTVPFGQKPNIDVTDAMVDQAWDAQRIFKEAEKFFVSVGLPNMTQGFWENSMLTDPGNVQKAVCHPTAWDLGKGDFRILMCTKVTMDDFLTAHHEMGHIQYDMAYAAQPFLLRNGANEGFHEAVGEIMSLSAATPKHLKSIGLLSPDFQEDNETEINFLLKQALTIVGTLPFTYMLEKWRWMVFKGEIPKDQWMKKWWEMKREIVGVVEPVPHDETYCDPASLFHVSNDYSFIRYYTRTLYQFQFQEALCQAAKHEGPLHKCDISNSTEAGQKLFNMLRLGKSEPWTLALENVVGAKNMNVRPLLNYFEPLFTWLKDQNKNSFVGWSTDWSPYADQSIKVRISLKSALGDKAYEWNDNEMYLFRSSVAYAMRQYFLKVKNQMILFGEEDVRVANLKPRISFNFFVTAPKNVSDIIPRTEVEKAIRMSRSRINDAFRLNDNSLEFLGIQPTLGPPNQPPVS
substance,measurement,value
Wuhan RBD,Kd,7.3 nM
same,koff,0.0051 s⁻¹
